How the values were obtained:
Type III collagen = assay: Collagen fibril formation rate (turbidity at 325 nm), type III collagen; type: biochemical
Description: (§1) FIG. 2. Type III collagen fibrillogenesis after neutralisation in the presence of transglutaminases. Collagen (3 mg/ml) was neutralised as in the methods and was treated with 0, 50 or 250 μg/ml of mTG (A) or tTG (B). 500 μM inhibitor R281 was used to confirm that the effects were due to transglutaminase activity. The absorbance at 325 nm was measured using a PYE Unicam SP1800 UV spectrophotometer. The temperature was controlled at 25° C. using a Techne C-85A circulator. Results are from the average of 3 independent experiments.
(§2) Collagen fibrillogenesis was monitored by measuring the absorbance (turbidity) at 325 nm using a PYE Unicam SP1800 UV spectrophotometer.

Type I collagen = assay: Collagen fibril formation rate (turbidity at 325 nm), type I collagen; type: biochemical, calf
Description: as §1, with “1.” for “2.”, “I” for “III”, “microbial TG” for “mTG”, “μM of the TGase” for “μM”, “N-Benzyloxycarbonyl-L-phenylalanyl-6-dimethyl-sulfonium-5-oxo-L-norleucine (‘R281’)” for “R281”
as §2

[1] = Determination of ε-(γ-glutamyl)lysine cross-link (ion exchange amino acid analysis of digested collagen); type: physicochemical; details: for the equivalent (μg of protein) TG concentration
Description: Neutralised collagen mixture was subjected to treatment by both tissue and microbial TG. Samples of the neutralised collagen were treated with 50-1000 μg/ml of tTG, in a reaction mix consisting of 2 mM DTT and 5 mM CaCl2 in 10 mM Tris buffer (pH 7.4). The reaction mixture for the microbial enzyme simply consisted of 10 mM Tris buffer (pH 7.4). Incorporated fibronectin (Sigma-Aldrich, Poole, UK. Cat no. F0895) was used at concentrations of 5 μg/ml and 50 μg/ml. Transglutaminase was always added last to the collagen-reaction mix to minimise any self-imposed cross-linking. […]
Cross-linked and native samples of collagen were proteolytically digested by a modification of the methods of Griffin and Wilson (1984), which included an initial digestion with microbial collagenase (Clostridium histolyticum; 1 mg/ml, Sigma-Aldrich, Poole, UK. Cat no. C9891), prior to the addition of further proteases. […] Derivatisation was performed post column using o-pthaldialdehyde (0.8M boric acid, 0.78M potassium hydroxide, […] o-phthaldialdehyde, 0.5% (v/v) methanol, 0.75% (v/v) 2-mercaptoethanol, 0.35% (v/v) Brij 30) and the absorbance was measured at 450 nm. Dipeptide was determined by addition of known amounts of ε(γ-glutamyl)lysine to the sample and comparing peak areas.

N,N′-dimethylcasein = assay: Transglutaminase activity: incorporation of [14-C]-putrescine into N,N′-dimethylcasein; type: biochemical; details: Unit = 1 nmol of putrescine incorporated per hour
Text: The incorporation of [14-C]-putrescine into N,N′-dimethylcasein, as described earlier by Lorand et al. (1972) was used to assay for TG activity and monitor the effects of the inhibitors. Unit of transglutaminase activity is 1 nmol of putrescine incorporated per hour.

[2] = 50 μg or 250 μg of TG, collagen 3 mg/ml, absorbance at 325 nm, 25° C., vs untreated

inhibition of the transglutaminase effects on fibrillogenesis (Type III collagen; 500 μM inhibitor) | inhibition of the transglutaminase effects on fibrillogenesis (Type I collagen; 500 μM inhibitor) | Typical activities for the transglutaminases used (N,N′-dimethylcasein) | Molecule | time taken to achieve gel formation (Type III collagen; [2]) | time taken to achieve gel formation (Type I collagen; [2]) | amount of isopeptide formed, comparison in words [1] | Activity of the transglutaminase used to pre-treat collagen for the cell experiments (N,N′-dimethylcasein) [Units/mg]
abolished these effects | abolished these effects | – | C[S+](C)CC(=O)CC[C@H](NC(=O)[C@H](Cc1ccccc1)NC(=O)OCc1ccccc1)C(=O)O.[Br-] [R281, N-Benzyloxycarbonyl-L-phenylalanyl-6-dimethylsulfonium-5-oxo-L-nor-leucine bromide salt, reference compound] | – | – | – | –
– | – | 16000-25000 Units/mg | mTG: Microbial transglutaminase from Streptoverticillium mobaraenase, purified from Activa WM (Ajinomoto) (protein, UniProt P81453 77-407, looked up) Protein-glutamine …: DSDDRVTPPAEPLDRMPDPYRPSYGRAETVVNNYIRKWQQVYSHRDGRKQQMTEEQREWLSYGCVGVTWVNSGQYPTNRLAFASFDEDRFKNELKNGRPRSGETRAEFEGRVAKESFDEEKGFQRAREVASVMNRALENAHDESAYLDNLKKELANGNDALRNEDARSPFYSALRNTPSFKERNGGNHDPSRMKAVIYSKHFWSGQDRSSSADKRKYGDPDAFRPAPGTGLVDMSRDRNIPRSPTSPGEGFVNFDYGWFGAQTEADADKTVWTHGNHYHAPNGSLGAMHVYESKFRNWSEGYSDFDRGAYVITFIPKSWNTAPDKVKQGWP | significant reduction | significant reduction | much greater increase (almost two-fold) | 16000

Source: patent publication US20080305517A1, “Transglutaminase Crosslinked Collagen Biomaterial for Medical Implant Materials” (ASTON UNIVERSITY, priority 2004, published 2008)
